Consider 4 molecules from EP4755915A1 (Medytox Inc., dated 2026).

Experiment [1] deals with T1, fetal acetylcholine receptor (AChR) on the cell membrane of TE671 cells (human, UniProt P02708 21-457; P11230 24-501; Q07001 22-517; P07510 23-517).
T1 construct: whole, on cells; The subunit make-up (alpha2, beta, gamma, delta) is general knowledge of the fetal receptor; also called autoantigen AChR
Briefly: flow cytometry competition on TE671 cells expressing fetal AChR; competitor biotinylated mAb637 at 8 µg/ml, detected with labelled streptavidin. (In flow cytometry, cells or beads pass a laser one at a time.)

The target in experiment [2] is AChR (A, B, D and E) expressed on recombinant 293T cells. Description: cell-based or functional assay.

T1 sequence (P02708 21-457, chain 1 of 4): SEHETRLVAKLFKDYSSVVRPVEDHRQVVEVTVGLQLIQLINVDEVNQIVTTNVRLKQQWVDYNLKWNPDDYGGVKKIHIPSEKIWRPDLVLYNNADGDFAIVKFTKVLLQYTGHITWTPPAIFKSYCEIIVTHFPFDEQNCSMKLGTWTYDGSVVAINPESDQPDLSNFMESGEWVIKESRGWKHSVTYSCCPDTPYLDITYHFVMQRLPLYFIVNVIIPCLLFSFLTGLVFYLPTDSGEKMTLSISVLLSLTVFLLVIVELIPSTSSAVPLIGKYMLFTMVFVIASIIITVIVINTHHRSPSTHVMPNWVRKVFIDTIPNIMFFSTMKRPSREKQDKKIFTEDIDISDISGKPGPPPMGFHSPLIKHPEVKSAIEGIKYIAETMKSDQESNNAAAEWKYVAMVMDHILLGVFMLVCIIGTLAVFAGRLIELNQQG
T1 sequence (P11230 24-501, chain 2 of 4): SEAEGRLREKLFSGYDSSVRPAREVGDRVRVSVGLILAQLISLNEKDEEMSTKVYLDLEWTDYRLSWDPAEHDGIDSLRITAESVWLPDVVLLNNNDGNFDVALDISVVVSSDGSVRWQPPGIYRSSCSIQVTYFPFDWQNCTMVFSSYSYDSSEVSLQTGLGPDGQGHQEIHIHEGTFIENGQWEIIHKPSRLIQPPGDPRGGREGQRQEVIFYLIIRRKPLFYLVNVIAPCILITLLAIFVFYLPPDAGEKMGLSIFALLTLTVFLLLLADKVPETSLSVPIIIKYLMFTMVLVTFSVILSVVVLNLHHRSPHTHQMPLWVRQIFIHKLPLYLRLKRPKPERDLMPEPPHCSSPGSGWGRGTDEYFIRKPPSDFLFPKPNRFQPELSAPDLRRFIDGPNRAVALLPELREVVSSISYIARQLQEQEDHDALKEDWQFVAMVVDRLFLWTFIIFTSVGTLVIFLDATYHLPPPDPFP
T1 sequence (Q07001 22-517, chain 3 of 4): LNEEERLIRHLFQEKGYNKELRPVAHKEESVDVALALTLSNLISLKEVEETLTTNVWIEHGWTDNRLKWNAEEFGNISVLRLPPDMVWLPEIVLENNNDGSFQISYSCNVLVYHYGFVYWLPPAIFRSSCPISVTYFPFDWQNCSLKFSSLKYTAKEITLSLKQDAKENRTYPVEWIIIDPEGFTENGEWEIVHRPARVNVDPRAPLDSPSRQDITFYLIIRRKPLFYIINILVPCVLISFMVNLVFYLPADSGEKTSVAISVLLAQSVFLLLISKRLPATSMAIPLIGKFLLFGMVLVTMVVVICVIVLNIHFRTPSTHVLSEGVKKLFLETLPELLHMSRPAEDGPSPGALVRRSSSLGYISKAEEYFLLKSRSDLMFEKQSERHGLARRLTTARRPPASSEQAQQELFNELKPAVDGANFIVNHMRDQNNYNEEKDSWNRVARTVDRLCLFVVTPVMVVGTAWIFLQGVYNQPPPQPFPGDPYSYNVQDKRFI
T1 sequence (P07510 23-517, chain 4 of 4): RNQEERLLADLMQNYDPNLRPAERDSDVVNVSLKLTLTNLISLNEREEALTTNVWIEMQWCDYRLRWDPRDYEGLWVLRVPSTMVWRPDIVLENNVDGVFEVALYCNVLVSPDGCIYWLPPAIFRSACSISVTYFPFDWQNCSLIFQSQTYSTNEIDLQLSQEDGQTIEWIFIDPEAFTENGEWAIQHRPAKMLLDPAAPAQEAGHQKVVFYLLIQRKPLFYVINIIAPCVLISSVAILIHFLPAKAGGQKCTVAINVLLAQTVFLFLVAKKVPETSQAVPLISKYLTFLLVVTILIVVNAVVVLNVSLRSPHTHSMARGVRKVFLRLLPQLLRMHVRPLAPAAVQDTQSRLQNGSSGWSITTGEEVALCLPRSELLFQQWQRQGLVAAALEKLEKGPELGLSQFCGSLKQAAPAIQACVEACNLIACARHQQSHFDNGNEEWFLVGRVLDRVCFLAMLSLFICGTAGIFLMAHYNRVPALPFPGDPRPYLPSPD

B1: mAb637 B (antibody, human IgG2, kappa)
heavy: NFELTQPHSVSESPGKTVTISCTRSSGSIASNYVQWYQQRPGSSPTTVIYEDNQRPSGVPDRFSGSIDSSSNSASLTISGLKTEDEADYYCQSYDSNSGGRVFGGGTKLTVLRTVAAPSVFIFPPSDEQLKSGTASVVCLLNNFYPREAKVQWKVDNALQSGNSQESVTEQDSKDSTYSLSSTLTLSKADYEKHKVYACEVTHQGLSSPVTKSFNRGECERKCCVECPPCPAPPVAGPSVFLFPPKPKDTLMISRTPEVTCVVVDVSQEDPEVQFNWYVDGVEVHNAKTKPREEQFNSTYRVVSVLTVLHQDWLNGKEYKCKVSNKGLPSSIEKTISKAKGQPREPQVYTLPPSQEEMTKNQVSLTCLVKGFYPSDIAVEWESNGQPENYKTTPPVLDSDGSFFLYSRLTVDKSRWQEGNVFSCSVMHEALHNHYTQKSLSLSLGK
light: QVQLLESGGGLVKPGGSLRLSCAASGFKSTDYYMAWVRQAPGRGLEWVSFISGRVFTNYTASVRGRFTVFREDDNTSVYLQMSRLRVEDTAVYYCARLRGIFRGPLKPLEYYFDLWGRGTLVTVSSASTKGPSVFPLAPCSRSTSESTAALGCLVKDYFPEPVTVSWNSGALTSGVHTFPAVLQSSGLYSLSSVVTVPSSNFGTQTYTCNVDHKPSNTKVDKTV
notes: also called candidate antibody
As to B1, the binding result in experiment [1] is “binds”.

B2: mAb192 C IgG2/4 (antibody)
heavy: DIQMTQSPPSLSASLGDKVTITCQASQDINKYIAWYQQKPGKAPRQLIRYTSILVLGTPSRFSGSGSGRDFSFSISNVASEDIASYYCLQYGNLYTFGAGTKLEIKRSSASTKGPSVFPLAPCSRSTSESTAALGCLVKDYFPEPVTVSWNSGALTSGVHTFPAVLQSSGLYSLSSVVTVPSSNFGTQTYTCNVDHKPSNTKVDKTVERKCCVECPPCPAPPVAGPSVFLFPPKPKDTLMISRTPEVTCVVVDVSQEDPEVQFNWYVDGVEVHNAKTKPREEQFNSTYRVVSVLTVLHQDWLNGKEYKCKVSNKGLPSSIEKTISKAKGQPREPQVYTLPPSQEEMTKNQVSLTCLVKGFYPSDIAVEWESNGQPENYKTTPPVLDSDGSFFLYSRLTVDKSRWQEGNVFSCSVMHEALHNHYTQKSLSLSLGK
light: QVQLLESGPGLVQPSQTLSLTCTVSGFSLTTNGVSWVRQPPGKGLEWIAAISSGGSPYYNSALKSRLSINRDTSKSQVFLKMNSLQTEDTAIYFCTREDGWNYFDYWGPGTMVTVSSASVAAPSVFIFPPSDEQLKSGTASVVCLLNNFYPREAKVQWKVDNALQSGNSQESVTEQDSKDSTYSLSSTLTLSKADYEKHKVYACEVTHQGLSSPVTKSFNRGEC
Regarding B2, in experiment [2], the “decrease of apoptosis (CDC cell death) caused by humanized mAb35, at 0.15 µg/ml” value (from here on “decrease of apoptosis”) is > 37% and the “decrease of the ratio of C5b-9 positive cells caused by humanized mAb35, at 0.15 µg/ml” value (from here on “decrease of the ratio … at 0.15 µg/ml”) is > 60%.

B3: mAb192 C IgG1 (antibody)
heavy: not shown
light: B2 light
Consider B3, for which, in experiment [2], the “decrease of apoptosis” value is > 37% and the “decrease of the ratio … at 0.15 µg/ml” value is > 60%.

B4: mAb192 C IgG4 (antibody)
heavy: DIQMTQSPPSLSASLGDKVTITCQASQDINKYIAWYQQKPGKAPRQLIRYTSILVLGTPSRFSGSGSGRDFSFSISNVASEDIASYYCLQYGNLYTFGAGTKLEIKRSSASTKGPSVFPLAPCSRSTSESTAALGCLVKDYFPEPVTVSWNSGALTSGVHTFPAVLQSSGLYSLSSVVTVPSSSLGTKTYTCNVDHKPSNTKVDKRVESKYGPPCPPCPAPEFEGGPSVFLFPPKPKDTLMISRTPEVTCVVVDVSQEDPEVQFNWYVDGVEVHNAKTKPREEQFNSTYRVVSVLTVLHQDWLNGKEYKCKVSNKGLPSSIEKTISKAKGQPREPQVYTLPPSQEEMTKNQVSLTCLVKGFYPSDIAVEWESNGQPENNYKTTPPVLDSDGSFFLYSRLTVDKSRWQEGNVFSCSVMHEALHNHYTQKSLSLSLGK
light: B2 light
As for B4, in experiment [2], the “decrease of apoptosis” value was > 37% and the “decrease of the ratio … at 0.15 µg/ml” value was > 60%.
